Source: article doi:10.1101/116178

Biological target: RFP-p62 (UniProt Q13501)
Assay: co-IP

## mHTT aa1-1212 138Q-C6R (domain or fragment)
  fold binding against cleavable mHTT: 2 fold
